Experimental findings from the supplement of paper PMC7877785 are described below.

The series in a line: self-splicing fitness, log relative to wild type (ln ratio); higher = more splicing; Tetrahymena group I intron in knt gene, E. coli kanamycin selection, DiMSum; sequences stand for … in CUCUCU…GGAGGGAAAAGUUAUCAGGCAUGCACCUGGUAGCUAGUCUUUAAACCAAUAGAUUGCAUCGGUUUAAAAGGCAAGACCGUCAAAUUGCGGGAAAGGGGUCAACAGCCGUUCAGUACCAAGUCUCAGGGGAAACUUUGAGAUGGCCUUGCAAAGGGUAUGGUAAUAAGCUGACGGACAUGGUCCUAACCACGCAGCCAAGUCCUAAGUCAACAGAUCUUCUGUUGAUAUGGAUGCAGUUCACAGACUAAAUGUCGGUCGGGGAAGAUGUAUUCUUCUCAUAAGAUAUAGUCGGACCUCUCCUUAAUGGGAGCUAGCGGAUGAAGUGAUGCAACACUGGAGCCGCUGGGAACUAAUUUGUAUGCGAAAGUAUAUUGAUUAGUUUUGGAGUACUCGUGGUCG
The essentials: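 Colonies from six replicate transformations of E. coli BL21(DE3) were pooled and amplicon-sequenced on an Illumina HiSeq 2500. The library placed an intron with all eight P1ex-region nucleotides randomised inside the knt kanamycin-resistance gene on pET-22b(+), and cells grew overnight at 37°C or 30°C on LB agar with or without 25 μg/mL kanamycin (plus 100 μg/mL carbenicillin, 50 μM IPTG, 0.2% rhamnose). Fitness is the DiMSum error-weighted combination of wild-type-normalised replicate fold changes, kanamycin versus none.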

± gives the uncertainty stated by the source.

With UAGAAGCAAUAUUACGGGAG, the “self-splicing fitness (ln)” value is -1.97 ± 0.14 (30 °C) and -1.39 ± 0.12 (37 °C). In the same order, the values of GGCAAGCAAUAUUACGUUGC are -3.67 ± 0.37 and -2.42 ± 0.39. On to CGAUAGCAAUAUUACGAAUU, for which the “self-splicing fitness (ln)” value (30 °C) was -4.06 ± 0.3 and the “self-splicing fitness (ln)” value (37 °C) is -2.41 ± 0.21. In the same order, the values of UCCUAGCAAUAUUACGCAGG are -1.8 ± 0.46 and -2.88 ± 0.37. In the same order, the values of GGAUAGCAAUAUUACGAGGG are -3.29 ± 0.28 and -2.33 ± 0.27. The like results for AUUAAGCAAUAUUACGGCCA were, in that order, -0.171 ± 0.12 and -0.598 ± 0.12.

GUACAGCAAUAUUACGGAUU: the “self-splicing fitness (ln)” value by setting is: (30 °C) -2.88 ± 0.11; (37 °C) -0.823 ± 0.084. On to AGGCAGCAAUAUUACGGUAG, for which the “self-splicing fitness (ln)” value was -3.33 ± 0.25 (30 °C) and -2.66 ± 0.29 (37 °C).

With ACAGAGCAAUAUUACGAGGU, the “self-splicing fitness (ln)” value was -3.36 ± 0.11 (30 °C) and -2.66 ± 0.15 (37 °C). The like results for UCGAAGCAAUAUUACGGGAU were, in that order, -3.98 ± 0.31 and -3.17 ± 0.32.

On to CCGCAGCAAUAUUACGCACA, for which the “self-splicing fitness (ln)” value by setting is: (30 °C) -2.51 ± 0.19; (37 °C) -1.48 ± 0.17. In the same order, the values of UGAUAGCAAUAUUACGCUUG are -0.924 ± 0.091 and 0.0889 ± 0.14. In the same order, the values of UAAAAGCAAUAUUACGGCAC are -1.64 ± 0.14 and -1.13 ± 0.2. CUAUAGCAAUAUUACGUAUU: the “self-splicing fitness (ln)” value (30 °C) was -3.8 ± 0.32. Take UCGUAGCAAUAUUACGGUUA: the “self-splicing fitness (ln)” value reads like this: (30 °C) -1.39 ± 0.15; (37 °C) -0.71 ± 0.12. The like results for ACCAAGCAAUAUUACGAGAG were, in that order, -3.53 ± 0.2 and -2.3 ± 0.17. In the same order, the values of CUACAGCAAUAUUACGACAA are -2.42 ± 0.2 and -2.19 ± 0.21. The like results for GAUUAGCAAUAUUACGCGUC were, in that order, -4.09 ± 0.47 and -2.01 ± 0.3. On to GUCAAGCAAUAUUACGUUGC, for which the “self-splicing fitness (ln)” value is, setting by setting: (30 °C) -5.11 ± 0.34; (37 °C) -2.28 ± 0.21. In the same order, the values of AACCAGCAAUAUUACGCAUU are -1.58 ± 0.068 and 0.096 ± 0.086. As for CGUGAGCAAUAUUACGAAGA, the “self-splicing fitness (ln)” value (30 °C) is -1.53 ± 0.37. With CGGUAGCAAUAUUACGAGUC, under “30 °C”, the “self-splicing fitness (ln)” value is -2.07 ± 0.43.

With CUAUAGCAAUAUUACGCUCG, the “self-splicing fitness (ln)” value is, setting by setting: (30 °C) -1.74 ± 0.12; (37 °C) -0.741 ± 0.14.

For AUCGAGCAAUAUUACGUAGU, the “self-splicing fitness (ln)” value is -3.47 ± 0.14 (30 °C) and -1.96 ± 0.15 (37 °C). In the same order, the values of CGGGAGCAAUAUUACGGCGG are -1.17 ± 0.11 and -1.09 ± 0.19. The like results for UGCAAGCAAUAUUACGAAAG were, in that order, -2.6 ± 0.12 and -1.53 ± 0.13. In the same order, the values of AUUUAGCAAUAUUACGUCGU are -1.7 ± 0.11 and -1.33 ± 0.1.

For AGGGAGCAAUAUUACGUAAU, the “self-splicing fitness (ln)” value (37 °C) is -2.05 ± 0.26. As to GUGUAGCAAUAUUACGCCGG, the “self-splicing fitness (ln)” value is, setting by setting: (30 °C) -2.93 ± 0.27; (37 °C) -2.16 ± 0.38. Turning to AAGGAGCAAUAUUACGUUAU, the “self-splicing fitness (ln)” value reads like this: (30 °C) -2.99 ± 0.2; (37 °C) -1.59 ± 0.22.

With UUCCAGCAAUAUUACGUAUA, the “self-splicing fitness (ln)” value reads like this: (30 °C) -1.01 ± 0.17; (37 °C) -1.26 ± 0.16. For the sequence AGUCAGCAAUAUUACGGCAG, the “self-splicing fitness (ln)” value was -0.629 ± 0.11 (30 °C) and -0.145 ± 0.15 (37 °C). In the same order, the values of CCGGAGCAAUAUUACGUACG are -0.407 ± 0.14 and -0.609 ± 0.18.

For the sequence UGGCAGCAAUAUUACGGAAG, the “self-splicing fitness (ln)” value by setting is: (30 °C) -1.78 ± 0.13; (37 °C) -0.447 ± 0.12.

In the case of GGCAAGCAAUAUUACGAGGC, the “self-splicing fitness (ln)” value (30 °C) was -0.0179 ± 0.3.

In the case of UCACAGCAAUAUUACGGAAG, the “self-splicing fitness (ln)” value was -3.85 ± 0.23 (30 °C) and -2.3 ± 0.17 (37 °C). The like results for CAGAAGCAAUAUUACGGAGC were, in that order, -3.14 ± 0.34 and -2.32 ± 0.31. For GCGGAGCAAUAUUACGUAGU, the “self-splicing fitness (ln)” value was -2.12 ± 0.23 (30 °C) and 0.836 ± 0.34 (37 °C). In the case of CGACAGCAAUAUUACGCUUG, the “self-splicing fitness (ln)” value is -1.8 ± 0.098 (30 °C) and -1.22 ± 0.12 (37 °C).
